Reference: article PMC2132493

Molecular target: mXRN1p (Mus musculus (mouse; testis BALB/c and …, UniProt P97789 1-1719)
Test: EMSA

Sequence of mXRN1p (Mus musculus (P97789 whole entry): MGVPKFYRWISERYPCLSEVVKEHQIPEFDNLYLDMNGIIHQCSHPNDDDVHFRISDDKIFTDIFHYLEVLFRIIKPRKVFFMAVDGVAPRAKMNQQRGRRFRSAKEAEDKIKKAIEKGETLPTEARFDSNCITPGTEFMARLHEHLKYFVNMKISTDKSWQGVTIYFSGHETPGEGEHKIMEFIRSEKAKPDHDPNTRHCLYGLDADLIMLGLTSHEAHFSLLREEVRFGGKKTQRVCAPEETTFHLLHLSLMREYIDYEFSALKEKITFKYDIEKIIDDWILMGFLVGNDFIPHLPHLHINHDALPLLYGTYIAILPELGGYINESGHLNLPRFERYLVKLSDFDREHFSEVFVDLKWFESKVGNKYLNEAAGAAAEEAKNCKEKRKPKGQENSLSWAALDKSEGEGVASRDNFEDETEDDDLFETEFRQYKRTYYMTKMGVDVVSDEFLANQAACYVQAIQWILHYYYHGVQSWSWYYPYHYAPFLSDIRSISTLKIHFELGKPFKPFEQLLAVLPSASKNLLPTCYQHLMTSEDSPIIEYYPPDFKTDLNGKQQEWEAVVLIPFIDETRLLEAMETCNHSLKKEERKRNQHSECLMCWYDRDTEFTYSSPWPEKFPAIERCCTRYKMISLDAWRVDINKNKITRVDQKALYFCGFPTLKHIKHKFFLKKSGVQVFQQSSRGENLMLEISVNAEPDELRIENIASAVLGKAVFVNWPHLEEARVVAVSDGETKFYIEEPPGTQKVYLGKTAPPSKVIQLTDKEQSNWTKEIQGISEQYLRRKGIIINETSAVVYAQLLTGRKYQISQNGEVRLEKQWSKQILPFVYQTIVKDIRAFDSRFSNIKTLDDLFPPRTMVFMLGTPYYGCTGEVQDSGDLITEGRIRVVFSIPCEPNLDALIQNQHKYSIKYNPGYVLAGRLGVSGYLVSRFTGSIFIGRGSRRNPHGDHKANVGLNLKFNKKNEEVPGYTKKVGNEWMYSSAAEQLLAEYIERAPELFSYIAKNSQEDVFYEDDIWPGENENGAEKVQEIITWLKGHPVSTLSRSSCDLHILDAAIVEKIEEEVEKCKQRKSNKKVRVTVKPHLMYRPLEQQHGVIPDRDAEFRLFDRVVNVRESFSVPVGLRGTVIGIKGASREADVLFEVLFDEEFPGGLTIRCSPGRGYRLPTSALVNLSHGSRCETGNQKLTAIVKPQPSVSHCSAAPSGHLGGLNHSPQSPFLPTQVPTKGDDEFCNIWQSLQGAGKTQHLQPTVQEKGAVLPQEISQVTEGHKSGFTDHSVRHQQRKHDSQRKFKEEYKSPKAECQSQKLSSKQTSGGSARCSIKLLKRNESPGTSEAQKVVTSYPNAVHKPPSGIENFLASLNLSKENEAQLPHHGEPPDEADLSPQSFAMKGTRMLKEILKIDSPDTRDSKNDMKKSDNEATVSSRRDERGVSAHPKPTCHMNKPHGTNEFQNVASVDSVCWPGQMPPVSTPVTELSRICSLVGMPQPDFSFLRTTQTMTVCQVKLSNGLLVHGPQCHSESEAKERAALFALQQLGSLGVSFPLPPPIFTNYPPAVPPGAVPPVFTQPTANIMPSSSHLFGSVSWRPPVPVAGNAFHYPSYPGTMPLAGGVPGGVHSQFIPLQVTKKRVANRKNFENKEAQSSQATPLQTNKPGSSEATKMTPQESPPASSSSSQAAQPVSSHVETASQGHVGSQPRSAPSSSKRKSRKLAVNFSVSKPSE

Binder: UAUGGGGGAGCUGGGGAAGGUGGGAUUU (structured_RNA) [rGL[G4]]
- Ka: 2.95e+10 M⁻¹

Binder: TATGGGGGAGCTGGGGAAGGTGGGATTT (structured_DNA) [GL[G4]]
- Ka: 1.26e+10 M⁻¹
